From the supplement of paper PMC10567573 come the findings set out here.

The labels stand for the following.
B1: MNAT1 (parent)
chain: LAPIHKLEEALYEYQPLQIETYGP
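Note: lentivirally expressed fusions sorted by FACS into six bins by GFP to DsRed ratio, PSI derived from sequencing read proportions per bin multiplied by bin number.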

Variants of B1 are the subject of the data set. The experiment in a line: protein stability index of a GFP-peptide fusion (GPS, HEK-293T) (PSI 1-6); higher = more stable. The settings on record: c terminus: a fixed tail appended.
As for LAPIHKLEEALYESQPLQIETYGP, the protein stability index was determined as 3.36.

On to LAPIHKLEEALYEHQPLQIETYGP, for which the protein stability index came to 3.32.

Take LAPIHKLEEALYEKQPLQIETYGP: the protein stability index came to 3.53.

Regarding LAPIHKLEEALYEPQPLQIETYGP, the protein stability index is 2.94.

For LAPIHKLEEALYELQPLQIETYGP, the protein stability index is 2.1.

LAPIHKLEEALYEQQPLQIETYGP: the protein stability index was 2.87.

For the variant LAPIHKLEEALYEEQPLQIETYGP, the protein stability index is 3.43.

Take LAPIHKLEEALYEAQPLQIETYGP: the protein stability index worked out at 3.19.

Take LAPIHKLEEALYEMQPLQIETYGP: the protein stability index was determined as 2.42.

With LAPIHKLEEALYEWQPLQIETYGP, the protein stability index stood at 2.28.

LAPIHKLEEALYERQPLQIETYGP: the protein stability index came to 3.59.

With LAPIHKLEEALYEFQPLQIETYGP, the protein stability index is 2.1.

For the variant LAPIHKLEEALYEDQPLQIETYGP, the protein stability index worked out at 4.2.

For the variant LAPIHKLEEALYECQPLQIETYGP, the protein stability index was 2.54.

As to LAPIHKLEEALYETQPLQIETYGP, the protein stability index came to 3.33.

As for LAPIHKLEEALYEGQPLQIETYGP, the protein stability index turned out to be 3.45.

On to LAPIHKLEEALYEVQPLQIETYGP, for which the protein stability index was determined as 2.75.

In the case of LAPIHKLEEALYENQPLQIETYGP, the protein stability index came to 2.99.

Consider LAPIHKLEEALYEIQPLQIETYGP, for which the protein stability index stood at 2.52.

In the case of LAPIHKLEEALYEYQPGQIETYGP, the protein stability index was determined as 3.12.

With LAPIHKLEEALYEYQPNQIETYGP, the protein stability index is 3.01.

Consider LAPIHKLEEALYEYQPSQIETYGP, for which the protein stability index turned out to be 3.45.

Regarding LAPIHKLEEALYEYQPPQIETYGP, the protein stability index came to 2.89.

With LAPIHKLEEALYEYQPIQIETYGP, the protein stability index was determined as 2.1.

As to LAPIHKLEEALYEYQPDQIETYGP, the protein stability index is 3.96.

For the variant LAPIHKLEEALYEYQPQQIETYGP, the protein stability index was 2.19.

Regarding LAPIHKLEEALYEYQPEQIETYGP, the protein stability index worked out at 3.63.

As to LAPIHKLEEALYEYQPFQIETYGP, the protein stability index was 1.84.

For LAPIHKLEEALYEYQPVQIETYGP, the protein stability index amounted to 3.02.

For the variant LAPIHKLEEALYEYQPCQIETYGP, the protein stability index was determined as 2.51.

In the case of LAPIHKLEEALYEYQPAQIETYGP, the protein stability index stood at 2.5.

Regarding LAPIHKLEEALYEYQPMQIETYGP, the protein stability index was 2.33.

As for LAPIHKLEEALYEYQPWQIETYGP, the protein stability index amounted to 1.95.

In the case of LAPIHKLEEALYEYQPHQIETYGP, the protein stability index is 3.03.

As for LAPIHKLEEALYEYQPKQIETYGP, the protein stability index came to 3.19.

As for LAPIHKLEEALYEYQPYQIETYGP, the protein stability index is 2.59.

As for LAPIHKLEEALYEYQPRQIETYGP, the protein stability index amounted to 3.57.

Take LAPIHKLEEALYEYQPTQIETYGP: the protein stability index was found to be 2.47.

Take LAPIHKLEEALYEYQRLQIETYGP: the protein stability index is 2.02.

Regarding LAPIHKLEEALYEYQFLQIETYGP, the protein stability index turned out to be 1.44.

On to LAPIHKLEEALYEYQVLQIETYGP, for which the protein stability index amounted to 2.23.

Consider LAPIHKLEEALYEYQMLQIETYGP, for which the protein stability index came to 1.85.

For the variant LAPIHKLEEALYEYQELQIETYGP, the protein stability index was determined as 2.67.

For the variant LAPIHKLEEALYEYQKLQIETYGP, the protein stability index came out at 1.92.

For LAPIHKLEEALYEYQTLQIETYGP, the protein stability index stood at 1.96.

On to LAPIHKLEEALYEYQDLQIETYGP, for which the protein stability index was 2.86.

Consider LAPIHKLEEALYEYQYLQIETYGP, for which the protein stability index came out at 1.52.

For the variant LAPIHKLEEALYEYQGLQIETYGP, the protein stability index came to 2.35.

As to LAPIHKLEEALYEYQNLQIETYGP, the protein stability index is 2.94.

Turning to LAPIHKLEEALYEYQILQIETYGP, the protein stability index was 2.79.

On to LAPIHKLEEALYEYQSLQIETYGP, for which the protein stability index is 2.57.

Turning to LAPIHKLEEALYEYQQLQIETYGP, the protein stability index was found to be 1.97.

Regarding LAPIHKLEEALYEYQCLQIETYGP, the protein stability index worked out at 2.06.

As for LAPIHKLEEALYEYQLLQIETYGP, the protein stability index was found to be 1.88.

With LAPIHKLEEALYEYQALQIETYGP, the protein stability index was determined as 2.43.

In the case of LAPIHKLEEALYEYQHLQIETYGP, the protein stability index came out at 2.43.

On to LAPIHKLEEALYTYQPLQIETYGP, for which the protein stability index was found to be 2.14.

For LAPIHKLEEALYIYQPLQIETYGP, the protein stability index was determined as 2.17.

Consider LAPIHKLEEALYKYQPLQIETYGP, for which the protein stability index is 1.83.

As to LAPIHKLEEALYCYQPLQIETYGP, the protein stability index stood at 1.64.

LAPIHKLEEALYSYQPLQIETYGP: the protein stability index is 1.58.

LAPIHKLEEALYHYQPLQIETYGP: the protein stability index stood at 2.7.

For the variant LAPIHKLEEALYGYQPLQIETYGP, the protein stability index was 2.37.

For LAPIHKLEEALYYYQPLQIETYGP, the protein stability index is 1.61.

As to LAPIHKLEEALYAYQPLQIETYGP, the protein stability index was determined as 1.53.

For the variant LAPIHKLEEALYPYQPLQIETYGP, the protein stability index turned out to be 1.68.

Regarding LAPIHKLEEALYVYQPLQIETYGP, the protein stability index was determined as 2.04.

Turning to LAPIHKLEEALYWYQPLQIETYGP, the protein stability index was found to be 2.08.

For the variant LAPIHKLEEALYFYQPLQIETYGP, the protein stability index was determined as 2.29.

On to LAPIHKLEEALYLYQPLQIETYGP, for which the protein stability index is 2.22.

LAPIHKLEEALYMYQPLQIETYGP: the protein stability index came to 2.49.

As to LAPIHKLEEALYNYQPLQIETYGP, the protein stability index is 1.61.

With LAPIHKLEEALYDYQPLQIETYGP, the protein stability index was determined as 2.9.

As for LAPIHKLEEALYRYQPLQIETYGP, the protein stability index stood at 1.8.

As to LAPIHKLEEALYQYQPLQIETYGP, the protein stability index was determined as 1.43.

For the variant LAPIHKLEEALYEYQPLQIKTYGP, the protein stability index was determined as 3.27.

Consider LAPIHKLEEALYEYQPLQITTYGP, for which the protein stability index worked out at 1.28.

Consider LAPIHKLEEALYEYQPLQIHTYGP, for which the protein stability index stood at 1.6.

LAPIHKLEEALYEYQPLQIITYGP: the protein stability index turned out to be 2.71.

For LAPIHKLEEALYEYQPLQIYTYGP, the protein stability index worked out at 2.74.

On to LAPIHKLEEALYEYQPLQIPTYGP, for which the protein stability index worked out at 2.59.

For LAPIHKLEEALYEYQPLQIWTYGP, the protein stability index is 2.88.

In the case of LAPIHKLEEALYEYQPLQIMTYGP, the protein stability index was 1.47.

As for LAPIHKLEEALYEYQPLQIATYGP, the protein stability index was found to be 1.32.

Turning to LAPIHKLEEALYEYQPLQIRTYGP, the protein stability index was 1.79.

As for LAPIHKLEEALYEYQPLQIDTYGP, the protein stability index is 1.95.

On to LAPIHKLEEALYEYQPLQIGTYGP, for which the protein stability index was determined as 1.98.

On to LAPIHKLEEALYEYQPLQISTYGP, for which the protein stability index was 1.71.

As to LAPIHKLEEALYEYQPLQIQTYGP, the protein stability index was found to be 2.19.

Consider LAPIHKLEEALYEYQPLQIECYGP, for which the protein stability index came out at 3.14.

LAPIHKLEEALYEYQPLQIEHYGP: the protein stability index is 1.62.

Regarding LAPIHKLEEALYEYQPLQIERYGP, the protein stability index is 2.09.

As to LAPIHKLEEALYEYQPLQIEYYGP, the protein stability index was 2.38.

For the variant LAPIHKLEEALYEYQPLQIEPYGP, the protein stability index was found to be 2.46.
